Test results: patent US20110165623A1

What was measured:
[1] = biological target: purified recombinant mature TGFβ1 (expressed in CHO cells from the modified porcine TGFβ1 cDNA) (porcine) (UniProt P07200); assay: surface plasmon resonance, steady state response, double reciprocal plot; x axis printed as 1/[TβRII] (µM-1), y axis 1/Binding RU
[2] = biological target: purified recombinant mature TGFβ1 (expressed in CHO cells from the modified porcine TGFβ1 cDNA) (porcine) (UniProt P07200); assay: SPR (BIAcore 3000); TGFβ1 immobilised on a CM5 chip, TβRII 150 nM to 0.6 nM as analyte; steady state, linear regression of 1/Response versus 1/C; TGFβ1 immobilised on the chip, TβRII as analyte; steady state

UniProt P07200, sequence (P07200 279-390): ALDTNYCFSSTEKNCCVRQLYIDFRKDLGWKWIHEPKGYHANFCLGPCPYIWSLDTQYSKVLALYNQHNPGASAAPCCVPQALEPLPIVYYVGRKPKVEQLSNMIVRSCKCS

- intercept of the linear regression of 1/Binding RU against 1/[TβRII] [1]: 0.00102
- Kd [2]: 55 nM
Substance: TGFβ1 type II receptor (residues 22-136), refolded from inclusion bodies (from UniProt P37173 45-159)
